Three molecules from PMC11317129, “Bacterial histone HBb from Bdellovibrio bacteriovorus compacts DNA by bending” (Nucleic Acids Research, 2023) can be followed below.

Data set [1] concerns the molecule itself. The data set can be described thus: SEC-MALS; purified HBb in solution; 1260 Infinity II HPLC with miniDAWN TREOS and Optilab T-rEX detectors. A general note: SEC sorts molecules by how far they enter the pores of the column.
The target in data set [2] is T1, HBb (Bd0055) (Bdellovibrio bacteriovorus HD100, UniProt Q6MRM1 1-64).
T1 sequence: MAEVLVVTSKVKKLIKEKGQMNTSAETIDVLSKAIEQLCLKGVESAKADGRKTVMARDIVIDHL
The data set is described as follows: MST; unit printed as M (symbol lost); text says lower micromolar; 10 nM DNA; MST: 20 mM Tris pH 8.0, 150 mM NaCl, 2.5 mM 2-mercaptoethanol, 37 C 10 min (HMfB RT 5 min); EMSA 80 bp: 25 mM Tris pH 8.0, 50 mM NaCl, 50 mM KCl, 37 C; ladder EMSA/MNase/circularization: 50 mM Tris pH 7.0, 75 mM KCl, RT. Particulars: protein: recombinant; tags: N-terminal His6 (vector pETHis1a); chain copies: 2; label: 5' Cy5 on strand 1; blunt. (In EMSA bound probe runs differently from free probe, usually more slowly.)

Data set [3] deals with HMfB (Methanothermus fervidus, UniProt P19267 1-69). The data set can be described thus: MST; unit printed as M (symbol lost); 20 nM in HMfB titration; MST: 20 mM Tris pH 8.0, 150 mM NaCl, 2.5 mM 2-mercaptoethanol, 37 C 10 min (HMfB RT 5 min); EMSA 80 bp: 25 mM Tris pH 8.0, 50 mM NaCl, 50 mM KCl, 37 C; ladder EMSA/MNase/circularization: 50 mM Tris pH 7.0, 75 mM KCl, RT. The note with it: protein: recombinant; tags: N-terminal His6 (vector pET28a); chain copies: 4; label: 5' Cy5 on strand 1; blunt.
HMfB, sequence (P19267 whole entry): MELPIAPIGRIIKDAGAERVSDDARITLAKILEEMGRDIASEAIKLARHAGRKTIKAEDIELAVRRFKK

For data set [4], the target named is T1, HBb (Bd0055). The data set can be described thus: MST; unit printed as M (symbol lost); 10 nM DNA; MST: 20 mM Tris pH 8.0, 150 mM NaCl, 2.5 mM 2-mercaptoethanol, 37 C 10 min (HMfB RT 5 min); EMSA 80 bp: 25 mM Tris pH 8.0, 50 mM NaCl, 50 mM KCl, 37 C; ladder EMSA/MNase/circularization: 50 mM Tris pH 7.0, 75 mM KCl, RT. The note with it: protein: recombinant; tags: N-terminal His6 (vector pETHis1a); chain copies: 2; label: 5' Cy5 on strand 1; blunt.

B1: bacterial histone HBb (Histone of B. bacteriovorus) (natural protein, Bdellovibrio bacteriovorus)
chain: MAEVLVVTSKVKKLIKEKGQMNTSAETIDVLSKAIEQLCLKGVESAKADGRKTVMARDIVIDHL
notes: theoretical molecular weight 7 kDa; Homodimer by SEC-MALS and in the crystals; also called Bd0055
Take B1: the “stoichiometry N” value in data set [1] is 2.

B2: 80 bp DNA [Cy5] (dsDNA)
DNA 1: CCGTACTGTCGTCTGCGGCCTTTGATTATCAATTAAAGCGTTCTACGGCGTTTTTGATCGCTCAACGTGCGGAGCTAGAT
DNA 2: ATCTAGCTCCGCACGTTGAGCGATCAAAAACGCCGTAGAACGCTTTAATTGATAATCAAAGGCCGCAGACGACAGTACGG
As for B2, the results for the Kd in data set [2] and in data set [3] were 4.84 ± 0.97 µM and 0.83 ± 0.27 µM, respectively.

B3: 80 bp-GC50 [Cy5] (dsDNA)
DNA 1: TTAAAGCCCGTTAAAGCCCGTTAAAGCCCGTTAAAGCCCGTTAAAGCCCGTTAAAGCCCGTTAAAGCCCGTTAAAGCCCG
DNA 2: CGGGCTTTAACGGGCTTTAACGGGCTTTAACGGGCTTTAACGGGCTTTAACGGGCTTTAACGGGCTTTAACGGGCTTTAA
Consider B3, for which the equilibrium dissociation constant (Kd) amounted to 11.1 ± 1.07 µM in data set [4] and 3.92 ± 1.16 µM in data set [3].

One may read the stoichiometry N as the number of molecules, sites or subunits per partner or assembly. In general, Kd refers to the concentration at which binding is half-saturated.
